{"source": "patent US20240350583A1", "about": "“COMPOSITION FOR PREVENTING OR TREATING FIBROTIC DISEASES, COMPRISING HAPLN1” (Chung Ang University Industry Academic Cooperation …, priority 2021, published 2024)", "molecules": {"B1": {"name": "rhHAPLN1: recombinant human HAPLN1 protein of SEQ ID NO: 1 produced in CHO-K1 cells, stabilized in acetic acid buffer, sucrose, PS80, pH 5.0 (protein, listed as Homo sapiens)", "chain": "MKSLLLLVLISICWADHLSDNYTLDHDRAIHIQAENGPHLLVEAEQAKVFSHRGGNVTLPCKFYRDPTAFGSGIHKIRIKWTKLTSDYLKEVDVFVSMGYHKKTYGGYQGRVFLKGGSDSDASLVITDLTLEDYGRYKCEVIEGLEDDTVVVALDLQGVVFPYFPRLGRYNLNFHEAQQACLDQDAVIASFDQLYDAWRGGLDWCNAGWLSDGSVQYPITKPREPCGGQNTVPGVRNYGFWDKDKSRYDVFCFTSNFNGRFYYLIHPTKLTYDEAVQACLNDGAQIAKVGQIFAAWKILGYDRCDAGWLADGSVRYPISRPRRRCSPTEAAVRFVGFPDKKHKLYGVYCFRAYN"}}, "key": {"[1]": {"tested_on": "human kidney renal tubule cell (Human Kidney 2, HK-2)", "test": "Anti-fibrotic efficacy in HK-2 cells (drug after TGFβ1), αSMA western blot", "format": "cell-based", "method": "(1) Human kidney renal tubule cells (HK-2) were seeded (2.8×10^5 cells/well) in a […] according to the experimental scheme of FIG. 7A and incubated in RPMI 1640 Medium (11875-093, Gibco) including 10% FBS for 24 hours in an incubator at 37° C. 5% CO2.\n(2) Afterwards, the plates were washed several times with PBS, and each well of the plate was treated with TGFβ1 (5 ng/ml) and incubated for 24 hours.\n(3) Subsequently, the plates were then treated with the composition of the present disclosure (rhHAPLN1 protein content of 0, 5, 10, 20, and 50 ng/ml) and pirfenidone 0.2 mg/mL (200 μg/mL), respectively, and incubated for 48 hours.\n(4) Each sample was then washed several times with ice-cold PBS, treated with radioimmunoprecipitation assay (RIPA) lysis and extraction buffer (Thermo Scientific) including protease and phosphatase inhibitors, scraped with a scraper, and transferred to an E-tube.\n(§1) (5) By centrifugation (12000 rpm, 20 minutes, 4° C.), only the supernatant was obtained, and BCA assay was performed to obtain quantitative protein values.\n(6) After quantification using the obtained quantitative value, cooking was performed at 100° C. for 3 minutes and then stored in a −20° C. refrigerator. […]\n(11) After washing three times with TBST for 10 minutes each, the samples were detected by Chemidoc."}, "[2]": {"tested_on": "bleomycin-induced pulmonary fibrosis (BIPF)", "test": "Bleomycin-induced pulmonary fibrosis mouse model, treatment (inhalation from day 8)", "format": "in vivo", "method": "An experiment was conducted to verify the effect of ameliorating bleomycin-induced pulmonary fibrosis (BIPF) already developed by repeatedly administering the composition of the present disclosure by inhalation to animals with pulmonary fibrosis. Here, experimental results are presented that are basically similar to Example 12, but bleomycin-induced pulmonary fibrosis (BIPF) was sufficiently generated 7 days after bleomycin treatment, and that the composition of the present disclosure has the ability to treat fibrotic diseases.\nTo establish a bleomycin-induced pulmonary fibrosis (PF) model, 8-week to 10-week-old female C57BL/6N mice were used, and divided into 4 groups (Normal, PBS Control, 0.00075% (w/w) rhHAPLN1, 0.0015% (w/w) rhHAPLN1), with 4 mice per group, and the IPF disease induction method was referred to the paper by Liu et al. (Methods in Molecular Biology 2017, DOI: 10.1007/978-1-4939-7113-8_2) (see FIG. 13A). […]\nStarting 8 days after bleomycin administration, the control was a mixture of 50 μl of a stock solution consisting of 20 mM Tris-HCl, 0.5 M NaCl, pH 8.0, 50% glycerol and 10 ml PBS (1×, pH 7.4, Gibco Co.) solution. […] The weight of each experimental animal was measured every 2 days to confirm that there was no change in weight, and a mass dosing system and aerosol chamber (Data Science International Co., Ltd.) were used to generate the fog. […]\nNext, three tissue slides were prepared per mouse by cutting the middle portion of the left large lobe of the mouse, and three sections were photographed randomly on one slide, and then, for a total of nine sections, the stained darker part was distinguished from the unstained white part, and the area of the stained darker part was measured using Image J software, and each figure obtained was averaged to obtain an average value per mouse. […]"}, "[3]": {"tested_on": "renal proximal tubule epithelial cell (RPTEC)", "test": "Age-induced fibrosis of RPTEC (passage 11), αSMA western blot", "format": "cell-based", "conditions": "aged cells (P11); rhHAPLN1 100 ng/ml; 72 hours", "method": "(1) Renal proximal tubule epithelial cell (RPTEC) of the 3rd passage culture and 10th passage culture were seeded (5.0×10^5 cells) in 60Φ culture dishes and cultured in complete renal epithelial cell medium (ATCC PCS-400-030+ATCC PCS-400-040) in an incubator at 37° C. 5% CO2 for 24 hours.\n(2) Subsequently, the cells were then treated with the composition of the present disclosure (rhHAPLN1 protein content of 0, 10, and 100 ng/ml, respectively) and cultured for an additional 72 hours.\n(4) After washing three times with ice-cold PBS, each well was treated with 300 μl of RIPA lysis and extraction buffer including protease inhibitors and phosphatase inhibitors, scraped with a scraper to harvest cells, and transferred to an E-tube.\nas §1\n(6) Using a 4% to 15% precast acrylamide PAGE gel, proteins were loaded at 20 μg per lane and run (80V-20 minutes, 120V-1 hour 30 minutes).\n(7) Western blot was performed on the samples. Here, anti-αSMA Ab (Abcam, ab7817), anti-GAPDH Ab (Santa Cruz, sc-32233) were used as primary antibodies and HRP-conjugated anti-mouse IgG Ab (CST, #7076) as secondary antibodies."}}, "note": "“Also recorded” adds a separate entry of the source."}
{"molecule": "B1", "values": [{"measurement": "anti-fibrotic efficacy (αSMA) compared to pirfenidone 0.2 mg/ml", "setting": "[1]; rhHAPLN1 50 ng/ml", "result": "almost equivalent to that of pirfenidone"}, {"measurement": "anti-fibrotic efficacy (αSMA) compared to composition that does not include rhHAPLN1 protein (FIG. 7B, FIG. 7C)", "setting": "[1]; rhHAPLN1 10 to 50 ng/ml, 48 hours after 24 hours TGFβ1", "result": "superior anti-fibrotic action; also recorded: excellent anti-fibrotic efficacy"}, {"measurement": "H&E lung tissue form (FIG. 13B)", "setting": "[2]; rhHAPLN1 0.0015% (w/w)", "result": "quite similar to that of the normal group"}, {"measurement": "reduction of average area of dark (fibrotic) lung area compared to pulmonary fibrosis without treatment (FIG. 13C)", "setting": "[2]; rhHAPLN1 0.0015% (w/w), nebulized 1 hour once daily for 14 days from 8 days after bleomycin", "result": 51, "unit": "%"}, {"measurement": "Ashcroft score evaluation (FIG. 13E)", "setting": "[2]; rhHAPLN1 nebulized from 8 days after bleomycin", "result": "excellent therapeutic effect"}, {"measurement": "decrease of expression amount of αSMA protein compared to composition without rhHAPLN1 (FIG. 9B)", "setting": "[3]", "result": "about ⅓"}]}
